Article PMC9239096

Test system: T1, KdpE-MBP (Sinorhizobium fredii CCBAU45436 (SF4)), ORF:2638478e
T1 sequence: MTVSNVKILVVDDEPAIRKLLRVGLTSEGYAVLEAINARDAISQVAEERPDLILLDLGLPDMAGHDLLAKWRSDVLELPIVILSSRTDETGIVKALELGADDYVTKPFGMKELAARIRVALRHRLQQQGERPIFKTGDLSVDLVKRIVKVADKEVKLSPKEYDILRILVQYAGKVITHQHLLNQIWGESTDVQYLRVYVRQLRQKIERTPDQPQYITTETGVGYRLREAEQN
Test: EMSA
Details: 25 mM Tris-HCl pH 8.0, 0.5 mg/mL BSA, 0.1 mg/mL sonicated salmon sperm DNA, 5% glycerol, 0.05% DDM; 10 uL, 20 C, 30 min; 6% native PAGE

## TCCTCCTGCGCCTCTCTCGAACCTTTATGCGGTTCGGAGCCATATTCCTGACAAGATCCATCCACCGCCGCGCCGAACTCGATCGTCGCGCCGGGATGCGCACATCGATCGCGATCACCTGCCGGGCGGCCCGGCGCTGCCTCCAGGTGACGCGCAGTCAGTAGAAACAACGCACAGGGATTACCGACATGGACATTGTCGTTCTCGCAATAGGCATCGTGTTCTTCGCCTTATCGTTTGCCTATGTCCGGGCGTGCAGCAACCTCTAATCGCGGAGCGGAAAGATG (double strand) [Probe1_kdpF]
  binding: no binding
